In article PMC10786891, “Massively parallel profiling of RNA-targeting CRISPR-Cas13d”:
Positions count from the first letter of the chain named. In names and notes the source's numbering stands.

T1: EsCas13d, nuclease-dead (Eubacterium siraeum, UniProt B0MS50, R295A;H300A;R849A;H854A)
T1 sequence: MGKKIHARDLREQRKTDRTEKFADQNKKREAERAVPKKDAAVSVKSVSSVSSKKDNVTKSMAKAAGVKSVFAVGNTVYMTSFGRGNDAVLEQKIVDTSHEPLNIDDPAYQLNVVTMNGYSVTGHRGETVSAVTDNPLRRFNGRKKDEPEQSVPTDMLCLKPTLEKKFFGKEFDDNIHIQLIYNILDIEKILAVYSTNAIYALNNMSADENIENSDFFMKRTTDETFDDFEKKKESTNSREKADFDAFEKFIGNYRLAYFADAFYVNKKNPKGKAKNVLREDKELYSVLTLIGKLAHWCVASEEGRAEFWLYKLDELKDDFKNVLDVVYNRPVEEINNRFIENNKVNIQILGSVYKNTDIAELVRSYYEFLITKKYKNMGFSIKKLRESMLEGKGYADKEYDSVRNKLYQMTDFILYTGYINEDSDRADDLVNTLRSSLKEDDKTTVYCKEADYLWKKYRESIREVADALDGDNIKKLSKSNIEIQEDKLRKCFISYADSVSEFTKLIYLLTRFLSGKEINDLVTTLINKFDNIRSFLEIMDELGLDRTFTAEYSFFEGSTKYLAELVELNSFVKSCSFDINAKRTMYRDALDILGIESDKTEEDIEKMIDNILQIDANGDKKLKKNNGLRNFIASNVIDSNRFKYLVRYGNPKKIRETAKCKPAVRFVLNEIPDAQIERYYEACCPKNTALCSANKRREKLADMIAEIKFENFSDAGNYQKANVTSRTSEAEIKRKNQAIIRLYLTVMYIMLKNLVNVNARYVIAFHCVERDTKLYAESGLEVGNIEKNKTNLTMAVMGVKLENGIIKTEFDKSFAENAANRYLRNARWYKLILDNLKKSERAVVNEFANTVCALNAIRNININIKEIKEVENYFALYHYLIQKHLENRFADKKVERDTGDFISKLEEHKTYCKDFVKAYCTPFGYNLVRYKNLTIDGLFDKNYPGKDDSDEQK

B1: target 1 complement block 10-12 (mixed)
RNA 1: CACCCGUGCAAAAAUGCAGGGGUCUAAAACUGAGCGGAUAACCUCUCUAUGG
RNA 2: GGGAAUGGAUCCACAUCUACGAAUUCGUACCAUAGAGAGCAAAUCCGCUCACCGAGAUCGGAAGAGCACACGU
B2: target 1 insU 3' of 20,insG 3' of 16 (mixed)
RNA 1: B1 RNA 1
RNA 2: GGGAAUGGAUCCACAUCUACGAAUUCGUACCAUUAGAGGAGGUUAUCCGCUCACCGAGAUCGGAAGAGCACACGU
B3: target 1 del9,del22 (mixed)
RNA 1: B1 RNA 1
RNA 2: GGGAAUGGAUCCACAUCUACGAAUUCGUACAUAGAGAGGUUUCCGCUCACCGAGAUCGGAAGAGCACACGU
B4: target 1 G5U,C6U (mixed)
RNA 1: B1 RNA 1
RNA 2: B1 RNA 2 with C40G, A41U, A42U, C46U, G47U
B5: target 1 insA 3' of 10,insC 3' of 5 (mixed)
RNA 1: B1 RNA 1
RNA 2: GGGAAUGGAUCCACAUCUACGAAUUCGUACCAUAGAGAGGUUAAUCCGCCUCACCGAGAUCGGAAGAGCACACGU
B6: target 1 insC 3' of 22,insC 3' of 15 (mixed)
RNA 1: B1 RNA 1
RNA 2: B2 RNA 2 with A32C, U33A, G39C
B7: target 1 G15A,U19C (mixed)
RNA 1: B1 RNA 1
RNA 2: B1 RNA 2 with U33C, G37A, C40G, A41U, A42U
B8: target 1 insC 3' of 12,insG 3' of 10 (mixed)
RNA 1: B1 RNA 1
RNA 2: B5 RNA 2 with U41C, A43U, A44G, U45A, C46U, G48C, C49G
B9: target 1 U11C,G13U (mixed)
RNA 1: B1 RNA 1
RNA 2: B1 RNA 2 with G39U, C40G, A41C, A42U
B10: target 1 insC 3' of 11 (mixed)
RNA 1: B1 RNA 1
RNA 2: GGGAAUGGAUCCACAUCUACGAAUUCGUACCAUAGAGAGGUCUAUCCGCUCACCGAGAUCGGAAGAGCACACGU
B11: target 1 insA 3' of 21,insU 3' of 9 (mixed)
RNA 1: B1 RNA 1
RNA 2: B2 RNA 2 with U33A, G39A, A40G, G42U, U44A, A45U
B12: target 1 insG 3' of 4,insG 3' of 3 (mixed)
RNA 1: B1 RNA 1
RNA 2: B5 RNA 2 with A44U, U45C, C47G, G48C, C49G, C50U, U51G
B13: target 1 insU 3' of 7,insA 3' of 2 (mixed)
RNA 1: B1 RNA 1
RNA 2: B5 RNA 2 with A44U, U45C, C46U, C50U, U51C, C52A
B14: target 1 insA 3' of 8,insU 3' of 4 (mixed)
RNA 1: B1 RNA 1
RNA 2: B5 RNA 2 with A44U, U45A, C50U
B15: target 1 insC 3' of 20,insG 3' of 4 (mixed)
RNA 1: B1 RNA 1
RNA 2: GGGAAUGGAUCCACAUCUACGAAUUCGUACCACUAGAGAGGUUAUCCGCGUCACCGAGAUCGGAAGAGCACACGU
B16: target 1 insG 3' of 16,insC 3' of 14 (mixed)
RNA 1: B1 RNA 1
RNA 2: B2 RNA 2 with U34A, A35G, G36A, A37G, G39A, A40C
B17: target 1 insC 3' of 13,insA 3' of 3 (mixed)
RNA 1: B1 RNA 1
RNA 2: B5 RNA 2 with G40C, U41G, A43U, C50U, U51A
B18: target 1 insG 3' of 18,insG 3' of 14 (mixed)
RNA 1: B1 RNA 1
RNA 2: B2 RNA 2 with U34A, A35G, G39A, A40G
B19: target 1 C2G,U19C (mixed)
RNA 1: B1 RNA 1
RNA 2: B1 RNA 2 with U33C, C40G, A41U, A42U, C50G
B20: target 1 insG 3' of 16,insG 3' of 11 (mixed)
RNA 1: B1 RNA 1
RNA 2: B2 RNA 2 with U34A, A35G, G36A, A37G, G39A, A40G, G42U, U43G
B21: target 1 insC 3' of 17,insG 3' of 4 (mixed)
RNA 1: B1 RNA 1
RNA 2: B15 RNA 2 with C33U, U34A, A35G, G36C
B22: target 1 insG 3' of 21,insU 3' of 20 (mixed)
RNA 1: B1 RNA 1
RNA 2: B2 RNA 2 with A32G, U33A, A35U, G36A, A37G, G38A
B23: target 1 insG 3' of 16,insA 3' of 4 (mixed)
RNA 1: B1 RNA 1
RNA 2: B5 RNA 2 with A38G, G39A, U41G, A43U, C50A
B24: target 1 insA 3' of 19,insC 3' of 19 (mixed)
RNA 1: B1 RNA 1
RNA 2: B2 RNA 2 with U34A, A35C, G36A, A37G, G38A
B25: target 1 insC 3' of 17,insU 3' of 9 (mixed)
RNA 1: B1 RNA 1
RNA 2: B15 RNA 2 with C33U, U34A, A35G, G36C, C46U, G48C, C49G, G50C
B26: target 1 insC 3' of 18,insU 3' of 2 (mixed)
RNA 1: B1 RNA 1
RNA 2: B15 RNA 2 with C33U, U34A, A35C, G50U, U51C, C52U
B27: target 1 insA 3' of 22,insA 3' of 22 (mixed)
RNA 1: B1 RNA 1
RNA 2: B2 RNA 2 with C31A, U33C, U34A, A35U, G36A, A37G, G38A
B28: target 1 insC 3' of 13,insC 3' of 8 (mixed)
RNA 1: B1 RNA 1
RNA 2: B5 RNA 2 with G40C, U41G, A43U, G48C, C49G
B29: target 1 insC 3' of 13 (mixed)
RNA 1: B1 RNA 1
RNA 2: B10 RNA 2 with G40C, U41G, C42U
B30: target 1 insU 3' of 18,insA 3' of 17 (mixed)
RNA 1: B1 RNA 1
RNA 2: B2 RNA 2 with U34A, A35U, G38A
B31: target 1 insU 3' of 9,insU 3' of 5 (mixed)
RNA 1: B1 RNA 1
RNA 2: B5 RNA 2 with A44U, C49U
B32: target 1 insC 3' of 15 (mixed)
RNA 1: B1 RNA 1
RNA 2: B10 RNA 2 with A38C, G39A, U41G, C42U
B33: target 1 insG 3' of 21,insC 3' of 20 (mixed)
RNA 1: B1 RNA 1
RNA 2: B2 RNA 2 with A32G, U33A, U34C, A35U, G36A, A37G, G38A

The binders below were run against T1, EsCas13d, nuclease-dead (assay: crRNA (strand 1, pre-loaded); Mg2+; 40 mM Tris-HCl pH 7.5, 150 mM NaCl, 6 mM MgCl2, 1 mM DTT, 0.1% Tween-20, 0.2 mg/ml BSA; 25 C; 10 min per concentration, then washed). Details: tags: His6-TwinStrep-SUMO cleaved; N-terminal SNAP kept (SNAP-Surface 488); label: 3' end held by stalled T7 RNA polymerase.

Binder | Kd
B1 | 6.8 ± 0.4 nM
B2 | 36 ± 4 nM
B3 | 69 ± 9 nM
B4 | 48 ± 4 nM
B5 | 10.1 ± 0.5 nM
B6 | 40 ± 7 nM
B7 | 61 ± 20 nM
B8 | 12.3 ± 0.5 nM
B9 | 60 ± 10 nM
B10 | 29.8 ± 3.1 nM
B11 | 24.4 ± 2.1 nM
B12 | 8.2 ± 0.35 nM
B13 | 18.7 ± 1.5 nM
B14 | 12.3 ± 0.7 nM
B15 | 11.4 ± 0.9 nM
B16 | 38 ± 5 nM
B17 | 6.88 ± 0.2 nM

Binder | Kd
B18 | 63 ± 5 nM
B19 | 18.5 ± 1 nM
B20 | 50 ± 5 nM
B21 | 30.9 ± 2.4 nM
B22 | 58 ± 9 nM
B23 | 10.5 ± 0.5 nM
B24 | 21.5 ± 1.8 nM
B25 | 39 ± 7 nM
B26 | 38 ± 7 nM
B27 | 9.9 ± 0.6 nM
B28 | 13.1 ± 0.4 nM
B29 | 9.1 ± 0.4 nM
B30 | 54 ± 7 nM
B31 | 8 ± 1.5 nM
B32 | 16.3 ± 0.8 nM
B33 | 15.3 ± 1.1 nM
